This assay addresses T1, Yeast wild-type ribosomal protein L3 (rpl3), in vitro synthesized, free form (Saccharomyces cerevisiae (yeast), UniProt P14126 1-387).
T1 construct: also called wild-type L3; radiolabeled L3
Description: co-immunoprecipitation, isolated proteins in vitro.

T1 sequence (P14126 whole entry): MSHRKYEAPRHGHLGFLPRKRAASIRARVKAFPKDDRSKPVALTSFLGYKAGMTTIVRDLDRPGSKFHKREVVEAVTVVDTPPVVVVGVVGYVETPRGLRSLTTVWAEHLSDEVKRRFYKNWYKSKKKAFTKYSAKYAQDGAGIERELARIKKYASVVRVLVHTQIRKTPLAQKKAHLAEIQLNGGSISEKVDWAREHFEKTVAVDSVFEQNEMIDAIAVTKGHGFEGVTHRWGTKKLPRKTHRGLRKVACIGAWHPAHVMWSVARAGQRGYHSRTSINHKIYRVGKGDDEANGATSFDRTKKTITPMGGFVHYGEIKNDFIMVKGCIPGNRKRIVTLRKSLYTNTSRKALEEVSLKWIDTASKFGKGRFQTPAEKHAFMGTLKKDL

B1: Pokeweed antiviral protein (PAP) (enzyme)
chain: VNTIIYNVGSTTISKYATFLNDLRNEAKDPSLKCYGIPMLPNTNTNPKYVLVELQGSNKKTITLMLRRNNLYVMGYSDPFETNKCRYHIFNDISGTERQDVETTLCPNANSRVSKNINFDSRYPTLESKAGVKSRSQVQLGIQILDSNIGKISGVMSFTEKTEAEFLLVAIQMVSEAARFKYIENQVKTNFNRAFNPNPKVLNLQETWGKISTAIHDAKNGVLPKPLELVDASGAKWIVLRVDEIKPDVALLNYVGGSCQTTY
notes: mature
As for B1, the binding result is given as “binds”.

Source of the values: patent US20050114927A1 (RUTGERS THE STATE UNIVERSITY, published 2005).
